{
  "source": "the supplement of paper PMC9170038",
  "data": [
    {"test_system": "MS2 coat protein", "experiment": "apparent KD of MS2 coat protein, switch ON state; designed switch direction (-1 OFF switch, 1 ON switch): -1; higher = weaker reporter binding", "conditions": "FMN input: 0 or 200 uM; Eterna round: R93 (includes R88 designs)", "in_short": "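Illumina sequencing clusters were used for on-chip transcription of designed RNA switches. Titration with SNAP-549-labelled MS2 coat protein followed, in twofold steps from 0.7 or 1.5 nM to 3 µM in 100 mM Tris-HCl pH 7.5, 80 mM KCl, 4 mM MgCl2, without or with constant ligand. Apparent KD is each design's median of fits to normalised cluster binding curves.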", "units": {"apparent KD of MS2 coat protein": "nM"}, "values": [
      {"sequence": "AAAAACGCAGGAUAUACAUGAGGAUCACCCAUGUAAAAAAAAAAAAAGGGAAAAAAAAGUAGAAGGGCGAAAAA [Menkhaure Snaaib]", "apparent KD of MS2 coat protein": 21.4},
      {"sequence": "AAGAACUGAGGAUAUACACAAGAAAAGAAAAGAAAGAAAGAACAUGAGGAUCACCCAUGUAGAAGGCGGAAGAA [Merhotepre Sobekhotep V]", "apparent KD of MS2 coat protein": 39.3},
      {"sequence": "AAGAAUGAAGGAUAUACAAGGAAGAAAGAAAAGAAAAGAAAACAUGAGGAUCACCCAUGUAGAAGGUCAUAGAA [EteRNA is fun!]", "apparent KD of MS2 coat protein": 22},
      {"sequence": "AGAAUACAUGAGGAUCACCCAUGUGAGGAUAUGUGAAGAAAAAGAAAAGAAAAGAAACACAGAAGGCACAAAAG [EX 1 May 17]", "apparent KD of MS2 coat protein": 29.7},
      {"sequence": "GGAAAGUCAGGAUAUGGAUAAUAAAUACAAAUAGAAACAAACCAGAAGGGACAUGAGGAUCACCCAUGUAAACA [Exclusion 4 Electric]", "apparent KD of MS2 coat protein": 35.3},
      {"sequence": "AAACAACAUGAGGAUCACCCAUGUCAGGAUAUGAACGAAAUAAAAUAAAAAUAAAAGUUCAGAAGGGACGAAAA [Mat - Exclusion 1 - Eli mod - D18]", "apparent KD of MS2 coat protein": 36.7},
      {"sequence": "AAUAAGUGAGGAUAUGGAAAUAAUAAAUAAAAUAAAAUAAACCAGAAGGCACAUGAGGAUCACCCAUGUAAAUA [JR_Exc004_Sub002]", "apparent KD of MS2 coat protein": 24.4},
      {"sequence": "AAAAAGUCAGGAUAUCUGGAUAGGAAAAAGAAAACCUAUCCAGAGAAGGGACAUGAGGAUCACCCAUGUAAAAA [JL cataway mod 1]", "apparent KD of MS2 coat protein": 49.2},
      {"sequence": "GUAAACCUAGGAUAUACAUGAGGAUCACCCAUGUAAAAAAUAAUAAAAAGAAAAAAAAGUAGAAGGAGGUAGAU [JR_Exc003_Sub1226]", "apparent KD of MS2 coat protein": 29.1},
      {"sequence": "AACUAGUCAGGAUAUACGAACAUGUCAAAAAACAUGAAGGGACAUGAGGAUCACCCAUGUAGAAGGGACUAGCA [74%, Web mod - With 3 less G's]", "apparent KD of MS2 coat protein": 60.5},
      {"sequence": "ACAGUUACAGGAUAUACAAGGAAAAAUAAAAAUAAAAUUCAACAUGAGGAUCACCCAUGUAGAAGGGUAACUGA [Ex2 Design 200: Random 15]", "apparent KD of MS2 coat protein": 30},
      {"sequence": "AAAAAGUGAGGAUAUGCGCUGUGGAGUAGACACGACCAGUCGUAGAAGGCACAUGAGGAUCACCCAUGUUCAAA [EX4 Malc#21]", "apparent KD of MS2 coat protein": 27.4},
      {"sequence": "GGUUGGCGAGGAUAUACAUGAGGAUCACCCAUGUGAGAGAAAAUAGUGAGAAAGAAAAGUAGAAGGCGCUGACG [salish99-ex3-42]", "apparent KD of MS2 coat protein": 113},
      {"sequence": "AACAUGUUAGGAUAUAGAAGAAAAGAAAAGAAAGAAAAGAACUAGAAGGAACAUGAGGAUCACCCAUGUAAGAA [EteRNA is fun!]", "apparent KD of MS2 coat protein": 30.9},
      {"sequence": "AAAAUGUCAGGAUAUGUACGAAAAAAUAAAAAAAUAAAAGUACAGAAGGGACAUGAGGAUCACCCAUGUCAGGG [EX4 392: Minimal 4]", "apparent KD of MS2 coat protein": 97.9},
      {"sequence": "AAAAAACAUGAGGAUCACCCAUGUCAGGAUAUGCUAUGGAAAAUAAAAAUAAAACAUAGCAGAAGGGACACCAA [64%, Meechl, 2]", "apparent KD of MS2 coat protein": 32.8},
      {"sequence": "AGUUGGCGAGGAUAUACAUGAGGAUCACCCAUGUGAGAGAAAAAAGUGAGAAAGAAAUGUAGAAGGCGCUCACA [JL Lego Mod 13]", "apparent KD of MS2 coat protein": 62.8},
      {"sequence": "AAGAGUACAGGAUAUAUGUGAAAAGAGUCGAAAGACUCGGGACAUGAGGAUCACCCAUGUAGAAGGGUACUCAA [Diamond 75]", "apparent KD of MS2 coat protein": 75.7},
      {"sequence": "AAAGGAUCAGGAUAUGUGUGGAAAAAGUGUGUCCCAAAAAAACAUGAGGAUCACCCAUGUAGAAGGGAUCCAAA [Mod 5 of Normal (20/19) by Nando, Round 1]", "apparent KD of MS2 coat protein": 44.9},
      {"sequence": "CAGUACUGAGGAUAUACAUGAGGAUCACCCAUGUAUUCCAGCUAGGAAACUAGCAAAUGUAGAAGGCAGUACUG [Ex3: 825]", "apparent KD of MS2 coat protein": 14},
      {"sequence": "AGAAAACAUGAGGAUCACCCAUGUAAGGAUAUGCUGAAAAACACGGAAAAAACGUGCAGCAGAAGGUACAAAGA [Mat - Exclusion 1 - Eli mod - D95]", "apparent KD of MS2 coat protein": 22.4},
      {"sequence": "UAAAAACAUGAGGAUCACCCAUGUGAGGAUAUGUACGAAAUAAAUAAAAAAUAAAAGUACAGAAGGCACAAAAU [Mat - Exclusion 1 - Eli mod - D6]", "apparent KD of MS2 coat protein": 37},
      {"sequence": "AGUCCAGAAGGAUAUACAUAGGUGAAAAAAAAAAAAAAACUACAUGAGGAUCACCCAUGUAGAAGGUCUGGACA [Mod of Brourd]", "apparent KD of MS2 coat protein": 58.6},
      {"sequence": "ACCUGACAUGAGGAUCACCCAUGUCAGGAUAUGCAUCUUAGGAAAAAAAAACUAAGAUGCAGAAGGGACAUGGG [Design 2: Super Stable 2]", "apparent KD of MS2 coat protein": 25.4},
      {"sequence": "GAAAAGCAAGGAUAUACAUGAGGAUCACCCAUGUGGAAUGGCGUGACCGAAAGAAAAGGUAGAAGGUGCACGUG [Ragetia]", "apparent KD of MS2 coat protein": 216},
      {"sequence": "AGCUAGUGAGGAUAUACGAACAUGUCAAAAGACGUGAAGGAACAUGAGGAUCACCCAUGUAGAAGGCACUAGCA [Mat - Exclusion 2 - JL-Eli mod - D54]", "apparent KD of MS2 coat protein": 17.2},
      {"sequence": "UAUGAGCGAGGAUAUGCUUGGGACUGUCGGAAGGUGGCGGGACAUGAGGAUCACCCAUGUAGAAGGCGCGAGCG [Harteesian Tree]", "apparent KD of MS2 coat protein": 59.8},
      {"sequence": "AACAGUACAGGAUAUACAUGAGGAUCACCCAUGUCACAGAAAUAAAACAAAAAUAAAAGUAGAAGGGUACUGGA [Ruby 41]", "apparent KD of MS2 coat protein": 31.2},
      {"sequence": "AGCUAGUCAGGAUAUACAAACAUGUCAAAAGACGUGAAGGGACAUGAGGAUCACCCAUGUAGAAGGGACUAGCA [Web Mod 74% 2]", "apparent KD of MS2 coat protein": 52.2},
      {"sequence": "AUAGGCCUAGGAUAUACAUGAGGAUCACCCAUGUAAACCGAUAGAUCACGGUAAACGUGUAGAAGGAGGAAUAA [JR_Exc003_Sub207]", "apparent KD of MS2 coat protein": 24.4},
      {"sequence": "AAAAGGAUAGGAUAUACAUGAGGAUCACCCAUGUUUAUAAAUAAAAGAAAUAAAGAAAGUAGAAGGGUCAAGAA [LROPPY Exclusion 3 - v07_deltaG=3.4]", "apparent KD of MS2 coat protein": 19.6},
      {"sequence": "AUAGGCCUAGGAUAUACAUGAGGAUCACCCAUGUAAAUAAAUCGAUCAAAAUAAACGUGUAGAAGGAGGAAUAA [JR_Exc003_Sub205]", "apparent KD of MS2 coat protein": 33.5},
      {"sequence": "GAAGAACAUGAGGAUCACCCAUGUGAGGAUAUACAGAAUGGAAUAAAAUAACAAGAAAGUAGAAGGCACAAGAA [Ex 1 May 39]", "apparent KD of MS2 coat protein": 32.1},
      {"sequence": "AAAACUGGAGGAUAUACGAACAUGUCAAAAGACGUGAAGGGACAUGAGGAUCACCCAUGUAGAAGGCUAGAAAA [JL Stem Breaker 10]", "apparent KD of MS2 coat protein": 52.3},
      {"sequence": "AACAGUACAGGAUAUACAUGAGGAUCACCCAUGUGAGAGAAAUAAAACAAAAAUAAAAGUAGAAGGGUACUGAA [Mat - Exclusion 3 - Eli mod - D67]", "apparent KD of MS2 coat protein": 31.8},
      {"sequence": "AAAAAACAUGAGGAUCACCCAUGUGAGGAUAUGAAAUUACUAAGACAACUGUAAUCAAUCAGAAGGCACAACAA [JR_Exc--1_Sub1207]", "apparent KD of MS2 coat protein": 23.6},
      {"sequence": "AGCUAGAGAGGAUAUACAUGGAAAAAAAAAGUCUGAUCCCUACAUGAGGAUCACCCAUGUAGAAGGCUCUGGCA [Ex2 Design 158: Sub-opt 22]", "apparent KD of MS2 coat protein": 23.5},
      {"sequence": "AACAGUACAGGAUAUACAUGAGGAUCACCCAUGUCACAAUUAAGCAGCGUAACACAAAGUAGAAGGGUAAUGGA [Ruby 17]", "apparent KD of MS2 coat protein": 46.4},
      {"sequence": "AACAGUACAGGAUAUACAUGAGGAUCACCCAUGUGAAUAAAUAGUGGCGUACCACAAAGUAGAAGGGUACUGGA [Mat - Exclusion 3 - JL mod - D25]", "apparent KD of MS2 coat protein": 27.4},
      {"sequence": "AGCAAGUCAGGAUAUACGAACAAGACAAAAGACGAGAAGGGACAUGAGGAUCACCCAUGUAGAAGGGACAAGCA [74%, Web mod - With 5 less U's]", "apparent KD of MS2 coat protein": 61.9},
      {"sequence": "CUUGUGUGAGGAUAUGUAAAAUGAAUAAGCAGUUCUAAAAGGCAGAAGGUACAUGAGGAUCACCCAUGUGAAAA [Inza]", "apparent KD of MS2 coat protein": 39.3},
      {"sequence": "AUAAAUCGAGGAUAUACAUGAGGAUCACCCAUGUAAAUAAAUAAAUAAUCCUCAGGAAGUAGAAGGCGAAAUAA [JR_Exc003_Sub019]", "apparent KD of MS2 coat protein": 15.1},
      {"sequence": "AAAGGACGAGGAUAUACAUGAGGAUCACCCAUGUAAGAAGCAUAAUAAAAUAACUUAUGUAGAAGGCGUCCAAA [Mat - Exclusion 3 - Eli mod - D94]", "apparent KD of MS2 coat protein": 26},
      {"sequence": "GGAAAACAUGAGGAUCACCCAUGUAAGGAUAUGCAAAAAAAAAAAGGAUAUAGAAGGAGCAGAAGGUACAAAGG [salish99-ex1-29]", "apparent KD of MS2 coat protein": 36.2},
      {"sequence": "AAGAGUACAGGAUAUAUGUGAAAAGAGUCGAAAGACUCAAAACAUGAGGAUCACCCAUGUAGAAGGGUACUCAA [Diamond 74]", "apparent KD of MS2 coat protein": 52.5}
    ]}
  ]
}
